B1: library; numbered along this chain (parent)
chain: MNIQIGELAKRTACPVVTIRFYEQEGLLPPPGRSRGNFRLYGEEHVERLQFIRHCRSLDMPLSDVRTLLSYRKRPDQDCGEVNMLLDEHIRQVESRIGALLELKHHLVELREACSGARPAQSCGILQGLSDCVCDTRGTTAHPSD

± gives the standard deviation of the averaged measurements.

Data set [1] covers variants of B1. The data set is described as follows: sfGFP reporter fluorescence (15 h) (µM FITC); higher = higher leak. The settings on record: library round: Round 0; ligand: none. The method, boiled down:
(§1)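 Readout was endpoint sfGFP fluorescence, converted to µM FITC through standard curves. Reactions were 1 μL of BL21 Star (DE3) PANOx-SP extract with pPbrR-sfGFP reporter, 30 μg/mL GamS and linear PbrR templates normalized to 5 nM, containing 1 µM lead chloride, 30 µM zinc acetate or no metal. Incubation lasted 15 hr at 30 °C, with up to three biological replicates.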

In data set [2] the parent is B1. The data set is described as follows: sfGFP reporter fluorescence (15 h) (µM FITC); higher = stronger transcriptional activation. Conditions: library round: Round 0. The method, boiled down: as §1

Take MNIQIGELAKRTACPVVTIRFYEQEGLLPPPGRSRGNFRLYGEEHVERLQFIRHCRSLDMPLSDVRTLLSYRKRPDQDCGEVNMLLDEHIRQVESRIGALLELVHHLVELREACSGARPAQSCGILQMLSDCVCDTRGTTAHPSD [K104V G128M]: the sfGFP reporter fluorescence in data set [1] amounted to 0.179 ± 0.0031; in data set [2] (ligand: 1 µM Pb), 0.808 ± 0.088; in data set [2] (ligand: 30 µM Zn), 3.325 ± 0.0054.
In the case of MNIQIGELAKRTACPVVTIRFYEQEGLLPPPGRSRGNFRLYGEEHVERLQFIRHCRSLDMPLSDVRTLLSYRKRPDQDCGEVNMLLDEHIRQVESRIGALLELVHHLVELREACSGARPAQSCGILQILSDCVCDTRGTTAHPSD [K104V G128I], the sfGFP reporter fluorescence in data set [1] was determined as 0.0826 ± 0.006; in data set [2] (ligand: 1 µM Pb) it was 0.287 ± 0.021; in data set [2] (ligand: 30 µM Zn), 1.84 ± 0.44.
For the variant MNIQIGELAKRTACPVVTIRFYEQEGLLPPPGRSRGNFRLYGEEHVERLQFIRHCRSLDMPLSDVRTLLSYRKRPDQDCGEVNMLLDEHIRQVESRIGALLELKHHCVELREACSGARPAQSCGILQGLSDCVCDTRGTTAHPSD [L107C], the sfGFP reporter fluorescence in data set [1] turned out to be 0.491 ± 0.053; in data set [2] (ligand: 1 µM Pb), 1.05 ± 0.062; in data set [2] (ligand: 30 µM Zn), 2.85 ± 0.46.
Consider MNIQIGELAKRTACPVVTIRFYEQEGLLPPPGRSRGNFRLYGEEHVERLQFIRHCRSLDMPLSDVRTLLSYRKRPDQDCGEVNMLLDEHIRQVESRIGALLELKHHAVELREACSGARPAQSCGILQGLSDCVCDTRGTTAHPSD [L107A], for which the sfGFP reporter fluorescence in data set [1] is 0.514 ± 0.0098; in data set [2] (ligand: 1 µM Pb) it was 1.97 ± 0.12; in data set [2] (ligand: 30 µM Zn) it was 2.84 ± 0.79.
Regarding MNIQIGELAKRTACPVVTIRFYEQEGLLPPPGRSRGNFRLYGEEHVERLQFIRHCRSLDMPLSDVRTLLSYRKRPDQDCGEVNMLLDEHIRQVESRIGALLELVHHCVELREACSGARPAQSCGILQGLSDCVCDTRGTTAHPSD [K104V L107C], the sfGFP reporter fluorescence in data set [1] worked out at 0.184 ± 0.0062; in data set [2] (ligand: 1 µM Pb), 1.13 ± 0.23; in data set [2] (ligand: 30 µM Zn) it was 2.31 ± 0.5.
MNIQIGELAKRTACPVVTIRFYEQEGLLPPPGRSRGNFRLYGEEHVERLQFIRHCRSLDMPLSDVRTLLSYRKRPDQDCGEVNMLLDEHIRQVESRIGALLELVHHAVELREACSGARPAQSCGILQGLSDCVCDTRGTTAHPSD [K104V L107A]: the sfGFP reporter fluorescence came out at 0.166 ± 0.0088 in data set [1], 0.817 ± 0.042 in data set [2] (ligand: 1 µM Pb) and 2.18 ± 0.12 in data set [2] (ligand: 30 µM Zn).
For MNIQIGELAKRTACPVVTIRFYEQEGLLPPPGRSRGNFRLYGEEHVERLQFIRHCRSLDMPLSDVRTLLSYRKRPDQDCGEVNMLLDEHIRQVESRIGALLELKHALVELREACSGARPAQSCGILQGLSDCVCDTRGTTAHPSD [H106A], in that order: 0.0596 ± 0.0034, 0.0667 ± 0.00052 and 0.213 ± 0.02.
Regarding MNIQIGELAKRTACPVVTIRFYEQEGLLPPPGRSRGNFRLYGEEHVERLQFIRHCRSLDMPLSDVRTLLSYRKRPDQDCGEVNMLLDEHIRQVESRIGALLELKHHCVELREACSGARPAQSCGILQMLSDCVCDTRGTTAHPSD [L107C G128M], the sfGFP reporter fluorescence in data set [1] stood at 3.17 ± 0.33; in data set [2] (ligand: 1 µM Pb), 3.98 ± 0.14; in data set [2] (ligand: 30 µM Zn) it was 4.14 ± 0.45.
MNIQIGELAKRTACPVVTIRFYEQEGLLPPPGRSRGNFRLYGEEHVERLQFIRHCRSLDMPLSDVRTLLSYRKRPDQDCGEVNMLLDEHIRQVESRIGALLELKHHCVELREACSGARPAQSCGILQILSDCVCDTRGTTAHPSD [L107C G128I]: the sfGFP reporter fluorescence is 1.34 ± 0.036 in data set [1], 3.12 ± 0.11 in data set [2] (ligand: 1 µM Pb) and 4.14 ± 0.064 in data set [2] (ligand: 30 µM Zn).
With MNIQIGELAKRTACPVVTIRFYEQEGLLPPPGRSRGNFRLYGEEHVERLQFIRHCRSLDMPLSDVRTLLSYRKRPDQDCGEVNMLLDEHIRQVESRIGALLELWHHLVELREACSGARPAQSCGILQGLSDCVCDTRGTTAHPSD [K104W], the sfGFP reporter fluorescence in data set [1] came to 0.0574 ± 0.0096; in data set [2] (ligand: 1 µM Pb), 0.0795 ± 0.013; in data set [2] (ligand: 30 µM Zn), 0.607 ± 0.096.
For the variant MNIQIGELAKRTACPVVTIRFYEQEGLLPPPGRSRGNFRLYGEEHVERLQFIRHCRSLDMPLSDVRTLLSYRKRPDQDCGEVNMLLDEHIRQVESRIGALLELYHHLVELREACSGARPAQSCGILQGLSDCVCDTRGTTAHPSD [K104Y], the sfGFP reporter fluorescence in data set [1] was 0.059 ± 0.0083; in data set [2] (ligand: 1 µM Pb), 0.113 ± 0.028; in data set [2] (ligand: 30 µM Zn), 1.09 ± 0.13.
For MNIQIGELAKRTACPVVTIRFYEQEGLLPPPGRSRGNFRLYGEEHVERLQFIRHCRSLDMPLSDVRTLLSYRKRPDQDCGEVNMLLDEHIRQVESRIGALLELKAHLVELREACSGARPAQSCGILQGLSDCVCDTRGTTAHPSD [H105A], in that order: 0.0623, 0.0687 ± 0.0044 and 0.769 ± 0.086.
As to MNIQIGELAKRTACPVVTIRFYEQEGLLPPPGRSRGNFRLYGEEHVERLQFIRHCRSLDMPLSDVRTLLSYRKRPDQDCGEVNMLLDEHIRQVESRIGALLELVHHCVELREACSGARPAQSCGILQMLSDCVCDTRGTTAHPSD [K104V L107C G128M], the sfGFP reporter fluorescence came out at 0.701 ± 0.023 in data set [1], 3.1 ± 0.15 in data set [2] (ligand: 1 µM Pb) and 4.118 ± 0.038 in data set [2] (ligand: 30 µM Zn).
Consider MNIQIGELAKRTACPVVTIRFYEQEGLLPPPGRSRGNFRLYGEEHVERLQFIRHCRSLDMPLSDVRTLLSYRKRPDQDCGEVNMLLDEHIRQVESRIGALLELVHHCVELREACSGARPAQSCGILQILSDCVCDTRGTTAHPSD [K104V L107C G128I], for which the figures for the sfGFP reporter fluorescence in data set [1], in data set [2] (ligand: 1 µM Pb) and in data set [2] (ligand: 30 µM Zn) were 0.483 ± 0.024, 2.5 ± 0.27 and 3.37 ± 0.23, respectively.

The record behind these values is the supplement of paper PMC12783771.
